# Data from publication doi:10.1101/2024.01.22.576655.
# Tests used:
# [1] = molecular target: β-gal RNCs purified in low-salt buffer without the second sucrose cushion; experiment: affinity purification with mass spectrometry
# [2] = molecular target: BADAN-labelled TF_(R14C) (Escherichia coli) (UniProt P0A850); experiment: other fluorescence titration
# [3] = molecular target: RNC_(1-646) (Escherichia coli BL21(DE3)); experiment: co-sedimentation
# [4] = molecular target: RNC_(1-180) (Escherichia coli BL21(DE3)); experiment: co-sedimentation
# longer NCs = experiment: co-sedimentation
# Chain of DnaJ (endogenous) (P08622 whole entry): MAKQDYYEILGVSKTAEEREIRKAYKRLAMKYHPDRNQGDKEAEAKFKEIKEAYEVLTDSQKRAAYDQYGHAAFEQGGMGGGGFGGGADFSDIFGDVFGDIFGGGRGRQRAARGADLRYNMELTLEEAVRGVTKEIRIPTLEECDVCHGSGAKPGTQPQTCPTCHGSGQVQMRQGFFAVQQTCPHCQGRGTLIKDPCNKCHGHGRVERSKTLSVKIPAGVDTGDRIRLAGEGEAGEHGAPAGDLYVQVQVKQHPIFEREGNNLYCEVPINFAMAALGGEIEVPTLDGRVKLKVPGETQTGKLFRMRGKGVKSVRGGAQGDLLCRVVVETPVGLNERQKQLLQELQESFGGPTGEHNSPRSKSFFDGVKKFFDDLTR
occupancy [1] [%],stoichiometry N [3],Substance,further results
< 10,–,DnaK (endogenous) (from UniProt P0A6Y8 1-638) (natural protein),–
< 10,–,DnaJ (endogenous) (from UniProt P08622 1-376) (natural protein),–
–,–,RNC_(1-646) (complex),Kd [2]: 0.021 µM
–,1 TF per RNC,"Trigger factor, wild type, recombinant (from UniProt P0A850 1-432) (natural protein)",–
–,2 DnaK per NC,"DnaK, recombinant (from UniProt P0A6Y8 1-638) (natural protein)",stoichiometry N [4]: 1 DnaK per NC; stoichiometry N (molecules of DnaK per NC) (longer NCs): 2 to 3
